Test results published in the supplement of paper PMC5998384.

Columns and labels:
[1] = system: HeLa Kyoto; test: solubility in G1/S (NP-40 vs SDS abundance) (log2 ratio); higher = more soluble; conditions: cell cycle stage: G1/S
[2] = system: HeLa Kyoto; test: melting temperature (median over replicates), in situ; higher = more thermally stable
[3] = system: HeLa Kyoto; test: solubility change mitosis vs G1/S (difference of NP-40 vs SDS log2 ratios) (log2 ratio difference); higher = more soluble in mitosis
[4] = system: HeLa Kyoto; test: thermal stability score vs G1/S (z-score of summed log2 fold changes over temperatures); higher = more thermally stable than in G1/S
[5] = cell cycle stage: early G1 (4.5 h after nocodazole release)
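Wherever melting temperature (median over replicates), in situ is given: HeLa Kyoto cells synchronized by double thymidine or nocodazole block, proteins quantified by TMT10plex mass spectrometry, three independent biological replicates.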
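Wherever solubility change mitosis vs G1/S (difference of NP-40 vs SDS log2 ratios) is given: synchronized HeLa Kyoto cells (double thymidine block for G1/S, nocodazole release for mitosis), protein amounts in NP-40 versus SDS lysates quantified by mass spectrometry, three biological replicates.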
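Wherever solubility in G1/S (NP-40 vs SDS abundance) is given: HeLa Kyoto cells arrested at G1/S by double thymidine block, proteins quantified by TMT10plex mass spectrometry in mild NP-40 versus SDS extracts, three biological replicates.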
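Wherever thermal stability score vs G1/S (z-score of summed log2 fold changes over temperatures) is given: synchronized HeLa Kyoto cells, proteins quantified by TMT10plex mass spectrometry, three biological replicates, mitosis taken 0.5 h after nocodazole release, G1/S directly after double thymidine block.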

| Sequence | solubility in G1/S (log2) [1] | melting temperature ([2]; cell cycle stage: G1/S) | melting temperature ([2]; cell cycle stage: mitosis) | solubility change mitosis (log2) [3] | thermal stability score [4, 5] | thermal stability score ([4]; cell cycle stage: mitosis) |
| --- | --- | --- | --- | --- | --- | --- |
| MAMGDDKSFDDEESVDGNRPSSAASAFKVPAPKTSGNPANSARKPGSAGGPKVGGASKEGGAGAVDEDDFIKAFTDVPSIQIYSSRELEETLNKIREILSDDKHDWDQRANALKKIRSLLVAGAAQYDCFFQHLRLLDGALKLSAKDLRSQVVREACITVAHLSTVLGNKFDHGAEAIVPTLFNLVPNSAKVMATSGCAAIRFIIRHTHVPRLIPLITSNCTSKSVPVRRRSFEFLDLLLQEWQTHSLERHAAVLVETIKKGIHDADAEARVEARKTYMGLRNHFPGEAETLYNSLEPSYQKSLQTYLKSSGSVASLPQSDRSSSSSQESLNRPFSSKWSTANPSTVAGRVSAGSSKASSLPGSLQRSRSDIDVNAAAGAKAHHAAGQSVRSGRLGAGALNAGSYASLEDTSDKLDGTASEDGRVRAKLSAPLAGMGNAKADSRGRSRTKMVSQSQPGSRSGSPGRVLTTTALSTVSSGVQRVLVNSASAQKRSKIPRSQGCSREASPSRLSVARSSRIPRPSVSQGCSREASRESSRDTSPVRSFQPLASRHHSRSTGALYAPEVYGASGPGYGISQSSRLSSSVSAMRVLNTGSDVEEAVADALKKPARRRYESYGMHSDDDANSDASSACSERSYSSRNGSIPTYMRQTEDVAEVLNRCASSNWSERKEGLLGLQNLLKNQRTLSRVELKRLCEIFTRMFADPHGKRVFSMFLETLVDFIQVHKDDLQDWLFVLLTQLLKKMGADLLGSVQAKVQKALDVTRESFPNDLQFNILMRFTVDQTQTPSLKVKVAILKYIETLAKQMDPGDFINSSETRLAVSRVITWTTEPKSSDVRKAAQSVLISLFELNTPEFTMLLGALPKTFQDGATKLLHNHLRNTGNGTQSSMGSPLTRPTPRSPANWSSPLTSPTNTSQNTLSPSAFDYDTENMNSEDIYSSLRGVTEAIQNFSFRSQEDMNEPLKRDSKKDDGDSMCGGPGMSDPRAGGDATDSSQTALDNKASLLHSMPTHSSPRSRDYNPYNYSDSISPFNKSALKEAMFDDDADQFPDDLSLDHSDLVAELLKELSNHNERVEERKIALYELMKLTQEESFSVWDEHFKTILLLLLETLGDKEPTIRALALKVLREILRHQPARFKNYAELTVMKTLEAHKDPHKEVVRSAEEAASVLATSISPEQCIKVLCPIIQTADYPINLAAIKMQTKVIERVSKETLNLLLPEIMPGLIQGYDNSESSVRKACVFCLVAVHAVIGDELKPHLSQLTGSKMKLLNLYIKRAQTGSGGADPTTDVSGQS [CLASP2] | -0.0972 | 49.7 °C | 49.7 °C | -0.0766 | 0.157 | 0.371 |
| MAMLVLVPGRVMRPLGGQLWRFLPRGLEFWGPAEGTARVLLRQFCARQAEAWRASGRPGYCLGTRPLSTARPPPPWSQKGPGDSTRPSKPGPVSWKSLAITFAIGGALLAGMKHVKKEKAEKLEKERQRHIGKPLLGGPFSLTTHTGERKTDKDYLGQWLLIYFGFTHCPDVCPEELEKMIQVVDEIDSITTLPDLTPLFISIDPERDTKEAIANYVKEFSPKLVGLTGTREEVDQVARAYRVYYSPGPKDEDEDYIVDHTIIMYLIGPDGEFLDYFGQNKRKGEIAASIATHMRPYRKKS [SCO1] | 0.47 | 49.8 °C | 51.2 °C | -0.107 | 2.42 | 1.59 |
| MANDSGGPGGPSPSERDRQYCELCGKMENLLRCSRCRSSFYCCKEHQRQDWKKHKLVCQGSEGALGHGVGPHQHSGPAPPAAVPPPRAGAREPRKAAARRDNASGDAAKGKVKAKPPADPAAAASPCRAAAGGQGSAVAAEAEPGKEEPPARSSLFQEKANLYPPSNTPGDALSPGGGLRPNGQTKPLPALKLALEYIVPCMNKHGICVVDDFLGKETGQQIGDEVRALHDTGKFTDGQLVSQKSDSSKDIRGDKITWIEGKEPGCETIGLLMSSMDDLIRHCNGKLGSYKINGRTKAMVACYPGNGTGYVRHVDNPNGDGRCVTCIYYLNKDWDAKVSGGILRIFPEGKAQFADIEPKFDRLLFFWSDRRNPHEVQPAYATRYAITVWYFDADERARAKVKYLTGEKGVRVELNKPSDSVGKDVF [EGLN1] | 0.331 | 49.3 °C | 50.2 °C | 0.0496 | 2.53 | 0.714 |
| MANDSPAKSLVDIDLSSLRDPAGIFELVEVVGNGTYGQVYKGRHVKTGQLAAIKVMDVTEDEEEEIKLEINMLKKYSHHRNIATYYGAFIKKSPPGHDDQLWLVMEFCGAGSITDLVKNTKGNTLKEDWIAYISREILRGLAHLHIHHVIHRDIKGQNVLLTENAEVKLVDFGVSAQLDRTVGRRNTFIGTPYWMAPEVIACDENPDATYDYRSDLWSCGITAIEMAEGAPPLCDMHPMRALFLIPRNPPPRLKSKKWSKKFFSFIEGCLVKNYMQRPSTEQLLKHPFIRDQPNERQVRIQLKDHIDRTRKKRGEKDETEYEYSGSEEEEEEVPEQEGEPSSIVNVPGESTLRRDFLRLQQENKERSEALRRQQLLQEQQLREQEEYKRQLLAERQKRIEQQKEQRRRLEEQQRREREARRQQEREQRRREQEEKRRLEELERRRKEEEERRRAEEEKRRVEREQEYIRRQLEEEQRHLEVLQQQLLQEQAMLLECRWREMEEHRQAERLQRQLQQEQAYLLSLQHDHRRPHPQHSQQPPPPQQERSKPSFHAPEPKAHYEPADRAREVEDRFRKTNHSSPEAQSKQTGRVLEPPVPSRSESFSNGNSESVHPALQRPAEPQVPVRTTSRSPVLSRRDSPLQGSGQQNSQAGQRNSTSIEPRLLWERVEKLVPRPGSGSSSGSSNSGSQPGSHPGSQSGSGERFRVRSSSKSEGSPSQRLENAVKKPEDKKEVFRPLKPADLTALAKELRAVEDVRPPHKVTDYSSSSEESGTTDEEDDDVEQEGADESTSGPEDTRAASSLNLSNGETESVKTMIVHDDVESEPAMTPSKEGTLIVRQTQSASSTLQKHKSSSSFTPFIDPRLLQISPSSGTTVTSVVGFSCDGMRPEAIRQDPTRKGSVVNVNPTNTRPQSDTPEIRKYKKRFNSEILCAALWGVNLLVGTESGLMLLDRSGQGKVYPLINRRRFQQMDVLEGLNVLVTISGKKDKLRVYYLSWLRNKILHNDPEVEKKQGWTTVGDLEGCVHYKVVKYERIKFLVIALKSSVEVYAWAPKPYHKFMAFKSFGELVHKPLLVDLTVEEGQRLKVIYGSCAGFHAVDVDSGSVYDIYLPTHIQCSIKPHAIIILPNTDGMELLVCYEDEGVYVNTYGRITKDVVLQWGEMPTSVAYIRSNQTMGWGEKAIEIRSVETGHLDGVFMHKRAQRLKFLCERNDKVFFASVRSGGSSQVYFMTLGRTSLLSW [MAP4K4] | -0.155 | 51.7 °C | 51.3 °C | -0.0676 | 0.471 | 0.408 |
| MANEAYPCPCDIGHRLEYGGLGREVQVEHIKAYVTKSPVDAGKAVIVIQDIFGWQLPNTRYIADMISGNGYTTIVPDFFVGQEPWDPSGDWSIFPEWLKTRNAQKIDREISAILKYLKQQCHAQKIGIVGFCWGGTAVHHLMMKYSEFRAGVSVYGIVKDSEDIYNLKNPTLFIFAENDVVIPLKDVSLLTQKLKEHCKVEYQIKTFSGQTHGFVHRKREDCSPADKPYIDEARRNLIEWLNKYM [CMBL] | 0.267 | 53.5 °C | 52.8 °C | -0.08 | -0.107 | -0.238 |
| MANEEDDPVVQEIDVYLAKSLAEKLYLFQYPVRPASMTYDDIPHLSAKIKPKQQKVELEMAIDTLNPNYCRSKGEQIALNVDGACADETSTYSSKLMDKQTFCSSQTTSNTSRYAAALYRQGELHLTPLHGILQLRPSFSYLDKADAKHREREAANEAGDSSQDEAEDDVKQITVRFSRPESEQARQRRVQSYEFLQKKHAEEPWVHLHYYGLRDSRSEHERQYLLCPGSSGVENTELVKSPSEYLMMLMPPSQEEEKDKPVAPSNVLSMAQLRTLPLADQIKILMKNVKVMPFANLMSLLGPSIDSVAVLRGIQKVAMLVQGNWVVKSDILYPKDSSSPHSGVPAEVLCRGRDFVMWKFTQSRWVVRKEVATVTKLCAEDVKDFLEHMAVVRINKGWEFILPYDGEFIKKHPDVVQRQHMLWTGIQAKLEKVYNLVKETMPKKPDAQSGPAGLVCGDQRIQVAKTKAQQNHALLERELQRRKEQLRVPAVPPGVRIKEEPVSEEGEEDEEQEAEEEPMDTSPSGLHSKLANGLPLGRAAGTDSFNGHPPQGCASTPVARELKAFVEATFQRQFVLTLSELKRLFNLHLASLPPGHTLFSGISDRMLQDTVLAAGCKQILVPFPPQTAASPDEQKVFALWESGDMSDQHRQVLLEIFSKNYRVRRNMIQSRLTQECGEDLSKQEVDKVLKDCCVSYGGMWYLKGTVQS [POLR3E] | 0.128 | 49.8 °C | 49.9 °C | -0.0491 | 0.337 | 0.588 |
| MANSGCKDVTGPDEESFLYFAYGSNLLTERIHLRNPSAAFFCVARLQDFKLDFGNSQGKTSQTWHGGIATIFQSPGDEVWGVVWKMNKSNLNSLDEQEGVKSGMYVVIEVKVATQEGKEITCRSYLMTNYESAPPSPQYKKIICMGAKENGLPLEYQEKLKAIEPNDYTGKVSEEIEDIIKKGETQTL [GGCT] | 0.302 | 55.4 °C | 55.3 °C | -0.0992 | -0.47 | -3.22 |
